Measured values as given in patent US20160046706A1 (MEDICAL AND BIOLOGICAL LABORATORIES, published 2016).

T1: agPa (synthetic peptide containing the cleavage region of NRG1-a, bound to KLH); positions 221 to 244 of the … (human, bound to KLH)
T1 peptide: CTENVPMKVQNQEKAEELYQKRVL

T2: AREG (amphiregulin; R&D Systems 262-AR-100/CF) (UniProt P15514 101-198)
T2 construct: Bought protein
T2 sequence (looked up): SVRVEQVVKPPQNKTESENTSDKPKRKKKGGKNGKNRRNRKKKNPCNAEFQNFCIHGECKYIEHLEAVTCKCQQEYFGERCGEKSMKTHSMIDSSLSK

T3: human NRG1-β1 protein (full length, HA tag at the N-terminus, on NRG1-b/st293T cells) (human, UniProt Q02297 20-640)
T3 construct: also called NRG1 isoform 1; HA-NRG1-b/st293T; not shown: HA tag added to the N-terminus
T3 sequence: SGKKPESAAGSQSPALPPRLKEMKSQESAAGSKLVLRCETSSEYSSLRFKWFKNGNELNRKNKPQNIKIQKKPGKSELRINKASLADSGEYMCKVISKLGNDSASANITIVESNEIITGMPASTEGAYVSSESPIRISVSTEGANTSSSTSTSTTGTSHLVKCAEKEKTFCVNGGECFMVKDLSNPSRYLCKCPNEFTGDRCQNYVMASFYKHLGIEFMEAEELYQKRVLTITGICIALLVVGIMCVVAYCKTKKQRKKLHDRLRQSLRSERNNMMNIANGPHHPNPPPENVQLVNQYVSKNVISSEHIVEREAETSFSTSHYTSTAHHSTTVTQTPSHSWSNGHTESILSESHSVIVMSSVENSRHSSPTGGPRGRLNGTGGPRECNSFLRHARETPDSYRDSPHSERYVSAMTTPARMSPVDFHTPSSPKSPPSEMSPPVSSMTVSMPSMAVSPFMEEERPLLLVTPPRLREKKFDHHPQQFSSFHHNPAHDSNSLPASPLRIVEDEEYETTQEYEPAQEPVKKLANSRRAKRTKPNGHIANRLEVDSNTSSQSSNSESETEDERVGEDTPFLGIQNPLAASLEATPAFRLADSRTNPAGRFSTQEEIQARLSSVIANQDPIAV

T4: human NRG1-α protein (full length, HA tag at the N-terminus, on NRG1-a/st293T cells) (human, UniProt Q02297 20-640)
T4 construct: also called NRG1 isoform 2; HA-NRG1-a/st293T; not shown: HA tag added to the N-terminus
T4 sequence: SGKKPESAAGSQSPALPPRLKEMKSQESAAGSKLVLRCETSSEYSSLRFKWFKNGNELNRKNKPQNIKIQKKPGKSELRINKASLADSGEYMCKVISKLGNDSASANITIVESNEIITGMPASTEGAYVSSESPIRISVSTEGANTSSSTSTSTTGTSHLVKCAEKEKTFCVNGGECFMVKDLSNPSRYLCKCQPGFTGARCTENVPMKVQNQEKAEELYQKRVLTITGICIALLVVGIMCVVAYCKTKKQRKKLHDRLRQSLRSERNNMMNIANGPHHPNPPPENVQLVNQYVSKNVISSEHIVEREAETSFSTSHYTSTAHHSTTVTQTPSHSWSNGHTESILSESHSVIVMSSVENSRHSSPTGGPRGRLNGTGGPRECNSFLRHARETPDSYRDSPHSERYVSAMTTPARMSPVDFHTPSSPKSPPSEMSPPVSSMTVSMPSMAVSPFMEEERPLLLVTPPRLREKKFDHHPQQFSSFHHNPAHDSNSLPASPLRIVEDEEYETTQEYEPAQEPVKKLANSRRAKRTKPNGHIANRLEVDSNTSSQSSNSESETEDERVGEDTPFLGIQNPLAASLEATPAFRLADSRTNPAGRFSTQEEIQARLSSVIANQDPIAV


Key:
[1] = target: T1, agPa (synthetic peptide containing the …); test: ELISA, partial-length NRG1 protein on the plate (FIG. 4)
Description: Hybridomas producing anti-NRG1 antibodies were selected by the enzyme-linked immunosorbent assay (ELISA). The assay used the recombinant human NRG1 proteins as immunogens, which had been dispensed in a 96-well ELISA plate (manufactured by nunc A/S) in an amount of 0.5 μg/mL, that is, 50 μL/well, and left to stand at room temperature for 2 hours or 4° C. overnight for adsorption. After the solution was removed, 1% BSA (manufactured by Nacalai Tesque, Inc.: 01863-35)—5% Sucrose (manufactured by WAKO PURE CHEMICAL […], LTD.)—PBS was added in an amount of 150 μL/well, and left to stand at room temperature for 2 hours to block the remaining active groups. After the resultant was left to stand, the solution was removed, and the hybridoma culture supernatant was dispensed as a primary antibody in an amount of 50 μL/well and left to stand for 1 hour. […] Then, the absorbance at 450 nm was measured using a plate reader (manufactured by Thermo Fisher Scientific Inc.).
The sequences recognized by 8a2, 8a4, 10bM3, and 10b2M3 were analyzed by evaluating the reactivity with the recombinant NRG1 proteins. To be more specific, the analysis was performed using multiple partial-length NRG1 proteins, and the reactivity of each antibody with these was detected by the same enzyme-linked immunosorbent assay (ELISA) as above. […] The vertical axis represents the absorbance.

[2] = target: T5, HB-EGF (heparin-binding EGF-like growth factor; R&D Systems 259-HE-050/CF) (UniProt Q99075 63-148); test: ELISA, factor on the plate at 0.5 µg/mL (FIG. 8)
T5 construct: Bought protein
T5 sequence (Q99075 63-148 limits assumed): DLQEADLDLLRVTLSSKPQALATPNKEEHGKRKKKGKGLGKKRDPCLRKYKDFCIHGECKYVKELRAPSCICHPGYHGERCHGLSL
Description: (§1) After the solution was removed, 1% BSA (manufactured by Nacalai Tesque, Inc.: 01863-35)—5% Sucrose (manufactured by WAKO PURE CHEMICAL […], LTD.)—PBS was added in an amount of 150 μL/well, and left to stand at room temperature for 2 hours to block the remaining active groups. After the resultant was left to stand, the solution was removed, and the hybridoma culture supernatant was dispensed as a primary antibody in an amount of 50 μL/well and left to stand for 1 hour. After the plate was washed with 0.05% Tween 20-PBS, an HRP-labeled anti-mouse IgG antibody (manufactured by MBL Co., Ltd.: 330) having been diluted 10000 times was added as a secondary antibody in an amount of 50 μL/well and left to stand at room temperature for 1 hour. After the plate was washed with 0.05% Tween 20-PBS, a color developing solution (5 mM sodium citrate, 0.8 mM 3.3′.5.5′-tetramethylbenzidine-2HCl, 10% N,N-dimethylformamide, 0.625% polyethylene glycol 4000, 5 mM citric acid monohydrate, 5 mM H2O2) was added thereto in an amount of 50 μL/well and left to stand at room temperature for 20 minutes to develop a color. The color development was terminated by adding 1 M phosphoric acid in an amount of 50 μL/well. Then, the absorbance at 450 nm was measured using a plate reader (manufactured by Thermo Fisher Scientific Inc.).
(§2) As described above, any homology with the NRG1 protein is low in the EGF domain. Nonetheless, 8a4, 10bM3, and 10b2M3 capable of recognizing the vicinity of the EGF domain were analyzed for the reactivity with the other factors of the EGF family by the same ELISA as above. To be more specific, each of EGF (manufactured by R&D Systems, Inc.: 236-EG-200), HB-EGF (manufactured by R&D Systems, Inc.: 259-HE-050/CF), TGF-alpha (manufactured by R&D Systems, Inc.: 239-A-100), AREG (manufactured by R&D Systems, Inc.: 262-AR-100/CF), NRG1-α (manufactured by R&D Systems, Inc.: 296-HR-050/CF), or NRG1-b (manufactured by R&D Systems, Inc.: 296-HB-050/CF) was dispensed in a 96-well ELISA plate in an amount of 0.5 μg/mL, that is, 50 μL/well, and immobilized thereto, for detection of the reaction with each antibody in amounts of 10 μg/mL and 1 μg/mL.

[3] = target: T2, AREG (amphiregulin; R&D Systems …); test: ELISA, factor on the plate at 0.5 µg/mL (FIG. 8)
Description: as §1, §2

[4] = target: T6, EGF (R&D Systems 236-EG-200) (UniProt P01133 971-1023); test: ELISA, factor on the plate at 0.5 µg/mL (FIG. 8)
T6 construct: Bought protein
T6 sequence (P01133 971-1023 limits assumed): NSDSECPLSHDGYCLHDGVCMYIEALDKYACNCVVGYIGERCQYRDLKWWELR
Description: as §1, §2

[5] = target: T7, TGF-alpha (transforming growth factor α; R&D Systems 239-A-100) (UniProt P01135 40-89); test: ELISA, factor on the plate at 0.5 µg/mL (FIG. 8)
T7 construct: Bought protein; also called TGFα; TGF-α
T7 sequence (P01135 40-89 limits assumed): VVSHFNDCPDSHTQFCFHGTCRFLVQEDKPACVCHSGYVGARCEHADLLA
Description: as §1, §2

[6] = target: T3, human NRG1-β1 protein (full length, HA …); test: flow cytometry on NRG1-b/st293T cells
[7] = target: T4, human NRG1-α protein (full length, HA …); test: ELISA on partial-length proteins and flow cytometry on NRG1-a/st293T cells (FIGS. 5 to 7)

Row | binding result [1] | binding result [6] | binding result [7] | Binder | binding result [2] | binding result [3] | binding result [4] | binding result [5]
1 | binds | no binding (tested: 5 µg/mL) | – | 8a4 (antibody, mouse IgG1, V domains shown, Mouse monoclonal antibody; Variable genes were amplified with mouse IgG1 CH1 and kappa constant region primers; The printed VL ends at ...GTKL; also called 8a4 antibody) VH: EVQLQQSGADLVRPGASVKLSCTASGFNIKDDYIHWVKQRPEQGLEWIGWIDPENGDTEYASQFQGKATITADTSSNTAYLQLRSLTSEDTAVYYCTTSDHRAWFAFWGLGTLVTVSS VL: DVLMTQTPLSLPVSLGDQASISCRSSQTIVHRNGNTYLEWYLQKPGQSPKLLIYRVSNRFSGVPDRFSGSGSGTDFTLKISRVEAEDLGVYYCFQGSHVPLTFGAGTKL | no binding (tested: 10 µg/mL and 1 µg/mL) | no binding (tested: 10 µg/mL and 1 µg/mL) | no binding (tested: 10 µg/mL and 1 µg/mL) | no binding (tested: 10 µg/mL and 1 µg/mL)
2 | – | – | no binding | 10b2M3 (antibody, mouse IgG1, V domains shown, Mouse monoclonal antibody; Variable genes were amplified with mouse IgG1 CH1 and kappa constant region primers; The printed VL ends at ...GTKL; also called 10b2M3 antibody) VH: QVQLQQSGPELVKPGASVKISCKASGYAFSSSWMNWVKQRPGKGLEWIGRIYPGDGDIYYNGKFKGKATLTADKSSSTAYMQLNSLTSEDSAVYFCARTFNYPFFAYWGQGTLVTVSS VL: DILMTQSPSSLTVSTGEKVTMSCKSSQSLLASANQNNYLAWHQQKPGRSPKMLIIWASTRVSGVPDRFIGSGSGTDFTLTINSVQAEDLAVYYCQQSYSAPTTFGAGTKL | no binding (tested: 10 µg/mL and 1 µg/mL) | no binding (tested: 10 µg/mL and 1 µg/mL) | no binding (tested: 10 µg/mL and 1 µg/mL) | no binding (tested: 10 µg/mL and 1 µg/mL)
3 | – | – | no binding | 10bM3 (antibody, mouse IgG1, V domains shown, Mouse monoclonal antibody; Variable genes were amplified with mouse IgG1 CH1 and kappa constant region primers; The printed VL ends at ...GTKL) VH: EVQLVESGGGLVKPGGSRKLSCAASGFTFSDYGIHWVRQAPEKGLEWLAYISSGSSTIYYADTVKGRFTISRDNAKNTLFLQMTSLRSEDTAMYYCARGSNYVGYYAMDYWGQGTSVTVSS VL: DIVMTQSPSSLAVTAGEKVTMRCKSSQSLLWSVNQKNYLSWYQQKEGQSPKLLIYGASIRESWVPDRFTGSGSGTDFTLTISNVHAEDLAVYYCQHNHGRFLPLTFGGGTKL | no binding (tested: 10 µg/mL and 1 µg/mL) | no binding (tested: 10 µg/mL and 1 µg/mL) | no binding (tested: 10 µg/mL and 1 µg/mL) | no binding (tested: 10 µg/mL and 1 µg/mL)
